Target: KIR3DL2CD3ε fusion protein on Jurkat reporter cells (UniProt P43630)
Test: cell-based or functional assay

KIR3DL2CD3ε fusion protein on Jurkat reporter cells, sequence (P43630 other isoform, or with tags, fused parts or gaps limits assumed): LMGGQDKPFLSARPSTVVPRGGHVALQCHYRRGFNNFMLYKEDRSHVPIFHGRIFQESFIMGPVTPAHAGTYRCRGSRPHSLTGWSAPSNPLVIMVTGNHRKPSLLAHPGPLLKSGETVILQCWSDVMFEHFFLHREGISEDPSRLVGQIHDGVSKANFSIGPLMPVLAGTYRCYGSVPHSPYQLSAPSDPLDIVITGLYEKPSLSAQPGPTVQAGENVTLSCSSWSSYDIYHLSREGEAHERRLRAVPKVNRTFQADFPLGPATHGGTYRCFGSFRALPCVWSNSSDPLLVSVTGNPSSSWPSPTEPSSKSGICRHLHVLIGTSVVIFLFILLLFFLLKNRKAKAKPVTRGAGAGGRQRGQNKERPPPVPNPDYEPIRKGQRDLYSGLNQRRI

HLA-B27 on transfected LCL.LBL.721.221 cells (ligand)
IL-2 production by KIR3DL2CD3ε transduced Jurkat reporter cells (ELISA): 6 fold

Source: US20150232556A1
